According to patent US20170267970A1, “Three-Dimensional Hydrogels that Support Growth of Physiologically Relevant Tissue and Methods of Use Thereof” (Whitehead Institute for Biomedical Research, priority 2016, published 2017):
Entries after “also recorded” stand apart in the source; their conditions may differ.

Columns and labels:
[1] = test system: breast cancer samples cultured in 3D culture; assay: Tamoxifen sensitivity of breast cancer samples in 3D culture (CellTiter-Glo on intact gels); type: cell-based, human; conditions: 48 hours of treatment; ER-positive cancer cells
Description: (§1) Shown are cell counts for each dose of drug following 48 hours of treatment. Cells were counted using CellTiter-Glo assay performed on intact gels. […] Both cultures were grown in hydrogel culture for nine days with 40 ng/mL nerve growth factor.

[2] = test system: mouse dorsal root ganglia neurons; assay: Growth of dorsal root ganglia neurons in hydrogels with nerve growth factor; type: cell-based; conditions: 40 ng/mL NGF; nine days
Description: as §1
Mouse dorsal root ganglia were collected and either dissociated into single cells (FIG. 22A) or kept intact (FIG. 22B), and seeded into hydrogels containing no growth factors aside from 40 ng/mL nerve growth factor (NGF). They were cultured in 50% DMEM, 50% F12 growth media supplemented with 10% heat-inactivated fetal bovine serum and 40 ng/mL NGF. The cultures were grown for nine days, at which point they were fixed and stained for the expression of the sodium channel NaV1.7 (a marker of nociceptive neurons) and the DNA dye DAPI.

[3] = test system: breast tissues cultured in hydrogel scaffolds; assay: Morphological response to hormones of breast tissues cultured in hydrogel scaffolds; type: cell-based, human
Text: FIG. 1A is a schematic representation of hydrogel assembly. FIG. 1B depicts representative bright-field images of tissue growth after ten days in Matrigel, polymerized collagen or the presently disclosed three-dimensional hydrogels (e.g., in the absence of BPE), alongside carmine stained mammary tissue sections from independent reduction mammoplasty patients. […] FIG. 1E depicts schematic and representative images showing the effect of pituitary hormones (0.4% bovine pituitary extract [BPE]) and 1 μg/mL recombinant human prolactin administration on the development of tissue structures grown in the presently disclosed three-dimensional hydrogels. BPE was added at seeding (D0) and prolactin at two weeks (N=4, 7 and 14, 1 resp). Bottom left images show representative architecture prior to the administration of prolactin. […] Error bars represent SEM.
Distance of the section from the surface of the structure is indicated. Scale bars are 200 μm.
We next assessed if breast tissues cultured in hydrogel scaffolds respond to steroid, pituitary, or lactogenic hormones, which are known to stimulate the development of mammary epithelial tissue in vivo.

Molecule: CC/C(=C(\c1ccccc1)c1ccc(OCCN(C)C)cc1)c1ccccc1 [tamoxifen]
- sensitivity / responsiveness to tamoxifen (cell counts) [1]: consistently responsive; also recorded: exhibit sensitivity

Molecule: nerve growth factor: nerve growth factor, 40 ng/mL in hydrogel and medium
- neuron survival and growth of axons and dendrites [2]: survive and grow new axons and dendrites

B1: prolactin: lactogenic hormone; 1 μg/mL recombinant human prolactin (protein, UniProt P01236 29-227, looked up)
Prolactin: LPICPGGAARCQVTLRDLFDRAVVLSHYIHNLSSEMFSEFDKRYTHGRGFITKAINSCHTSSLATPEDKEQAQQMNQKDFLSLIVSILRSWNEPLYHLVTEVRGMQEAPEAILSKAVEIEEQTKRLLEGMELIVSQVHPETKENEIYPVWSGLPSLQMADEESRLSAYYNLLHCLRRDSHKIDNYLKLLKCRIIHNNNC
- increase in lobular volume ([3]; 1 μg/mL recombinant human prolactin added at two weeks, day 21): 4 fold
- lipid droplets / lipid content (H&E, oil red O staining) ([3]; prolactin 1 μg/mL): formation of large lipid droplets; also recorded: lipid rich; also recorded: Lipid droplets can be seen
- formation of milk-like opaque substance in lumens ([3]; prolactin after 2 weeks of estrogen and progesterone): promotes the formation of an opaque substance that fills the luminal space of the structures
